The source of these data is IntAct's records for PubMed 17923090.

First the molecules themselves.
B1: Interferon alpha/beta receptor 2 (Homo sapiens), P48551 (parent)
chain: MLLSQNAFIFRSLNLVLMVYISLVFGISYDSPDYTDESCTFKISLRNFRSILSWELKNHSIVPTHYTLLYTIMSKPEDLKVVKNCANTTRSFCDLTDEWRSTHEAYVTVLEGFSGNTTLFSCSHNFWLAIDMSFEPPEFEIVGFTNHINVMVKFPSIVEEELQFDLSLVIEEQSEGIVKKHKPEIKGNMSGNFTYIIDKLIPNTNYCVSVYLEHSDEQAVIKSPLKCTLLPPGQESESAESAKIGGIITVFLIALVLTSTIVTLKWIGYICLRNSLPKVLNFHNFLAWPFPNLPPLEAMDMVEVIYINRKKKVWDYNYDDESDSDTEAAPRTSGGGYTMHGLTVRPLGQASATSTESQLIDPESEEEPDLPEVDVELPTMPKDSPQQLELLSGPCERRKSPLQDPFPEEDYSSTEGSGGRITFNVDLNSVFLRVLDDEDSDDLEAPLMLSSHLEEMVDPEDPDNVQSNHLLASGEGTQPTFPSPSSEGLWSEDAPSDQSDTSESDVDLGDGYIMR
partner: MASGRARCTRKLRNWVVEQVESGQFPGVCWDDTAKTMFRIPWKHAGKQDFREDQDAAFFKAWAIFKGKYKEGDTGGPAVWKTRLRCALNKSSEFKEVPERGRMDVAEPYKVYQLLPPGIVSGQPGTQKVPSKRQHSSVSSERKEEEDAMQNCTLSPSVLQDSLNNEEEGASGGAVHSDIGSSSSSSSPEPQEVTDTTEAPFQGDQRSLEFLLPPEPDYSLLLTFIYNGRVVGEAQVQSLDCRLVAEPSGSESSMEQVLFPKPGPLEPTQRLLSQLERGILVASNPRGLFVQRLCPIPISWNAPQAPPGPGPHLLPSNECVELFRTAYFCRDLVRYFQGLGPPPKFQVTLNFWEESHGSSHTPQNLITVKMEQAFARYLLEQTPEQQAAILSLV
B2: Interferon regulatory factor 9 (Homo sapiens), Q00978 (parent)
chain: B1 partner
partner: B1 chain
B3: Interferon alpha/beta receptor 2 (Homo sapiens), P48551 (parent)
chain: B1 chain

The variants in one test derive from B1. Particulars: with irf9_human IRF9, Q00978.
Turning to MLLSQNAFIFRSLNLVLMVYISLVFGISYDSPDYTDESCTFKISLRNFRSILSWELKNHSIVPTHYTLLYTIMSKPEDLKVVKNCANTTRSFCDLTDEWRSTHEAYVTVLEGFSGNTTLFSCSHNFWLAIDMSFEPPEFEIVGFTNHINVMVKFPSIVEEELQFDLSLVIEEQSEGIVKKHKPEIKGNMSGNFTYIIDKLIPNTNYCVSVYLEHSDEQAVIKSPLKCTLLPPGQESESAESAKIGGIITVFLIALVLTSTIVTLKWIGYICLRNSLPKVLNFHNFLAWPFPNLPPLEAMDMVEVIYINRKKKVWDYNYDDESDSDTEAAPRTSGGGYTMHGLTVRPLGQASATSTESQLIDPESEEEPDLPEVDVELPTMPKDSPQQLELLSGPCERRKAPLQDPFPEEDYSSTEGSGGRITFNVDLNSVFLRVLDDEDSDDLEAPLMLSSHLEEMVDPEDPDNVQSNHLLASGEGTQPTFPSPSSEGLWSEDAPSDQSDTSESDVDLGDGYIMR [S400A], the “effect of a mutation on the interaction” value is “increasing interaction”.
Take MLLSQNAFIFRSLNLVLMVYISLVFGISYDSPDYTDESCTFKISLRNFRSILSWELKNHSIVPTHYTLLYTIMSKPEDLKVVKNCANTTRSFCDLTDEWRSTHEAYVTVLEGFSGNTTLFSCSHNFWLAIDMSFEPPEFEIVGFTNHINVMVKFPSIVEEELQFDLSLVIEEQSEGIVKKHKPEIKGNMSGNFTYIIDKLIPNTNYCVSVYLEHSDEQAVIKSPLKCTLLPPGQESESAESAKIGGIITVFLIALVLTSTIVTLKWIGYICLRNSLPKVLNFHNFLAWPFPNLPPLEAMDMVEVIYINRKKKVWDYNYDDESDSDTEAAPRTSGGGYTMHGLTVRPLGQASATSTESQLIDPESEEEPDLPEVDVELPTMPKDSPQQLELLSGPCERRAAPLQDPFPEEDYSSTEGSGGRITFNVDLNSVFLRVLDDEDSDDLEAPLMLSSHLEEMVDPEDPDNVQSNHLLASGEGTQPTFPSPSSEGLWSEDAPSDQSDTSESDVDLGDGYIMR [K399A;S400A]: the “effect of a mutation on the interaction” value is given as “decreasing interaction”.
Still for that read-out and setting: then MLLSQNAFIFRSLNLVLMVYISLVFGISYDSPDYTDESCTFKISLRNFRSILSWELKNHSIVPTHYTLLYTIMSKPEDLKVVKNCANTTRSFCDLTDEWRSTHEAYVTVLEGFSGNTTLFSCSHNFWLAIDMSFEPPEFEIVGFTNHINVMVKFPSIVEEELQFDLSLVIEEQSEGIVKKHKPEIKGNMSGNFTYIIDKLIPNTNYCVSVYLEHSDEQAVIKSPLKCTLLPPGQESESAESAKIGGIITVFLIALVLTSTIVTLKWIGYICLRNSLPKVLNFHNFLAWPFPNLPPLEAMDMVEVIYINRKKKVWDYNYDDESDSDTEAAPRTSGGGYTMHGLTVRPLGQASATSTESQLIDPESEEEPDLPEVDVELPTMPKDSPQQLELLSGPCERRASPLQDPFPEEDYSSTEGSGGRITFNVDLNSVFLRVLDDEDSDDLEAPLMLSSHLEEMVDPEDPDNVQSNHLLASGEGTQPTFPSPSSEGLWSEDAPSDQSDTSESDVDLGDGYIMR [K399A], with “decreasing interaction”.

Variants of B2 are the subject of a further test. The following applies: with inar2_human IFNAR2, P48551.
As for MASGRARCTRKLRNWVVEQVESGQFPGVCWDDTAKTMFRIPWKHAGKQDFREDQDAAFFKAWAIFKGKYKEGDTGGPAVWKTRLRCALNKSSEFKEVPERGRMDVAEPYKVYQLLPPGIVSGQPGTQKVPSKRQHSSVSSERKEEEDAMQNCTLSPSVLQDSLNNEEEGASGGAVHSDIGSSSSSSSPEPQEVTDTTEAPFQGDQRSLEFLLPPEPDYSLLLTFIYNGRVVGEAQVQSLDCRLVAEPSGSESSMEQVLFPKPGPLEPTQRLLSQLERGILVASNPRGLFVQQLCPIPISWNAPQAPPGPGPHLLPSNECVELFRTAYFCRDLVRYFQGLGPPPKFQVTLNFWEESHGSSHTPQNLITVKMEQAFARYLLEQTPEQQAAILSLV [R292Q], the “effect of a mutation on the interaction” value is reported as “decreasing interaction”.

The next test covers variants of B3. The following applies: with cbp_human CREBBP.
In the case of MLLSQNAFIFRSLNLVLMVYISLVFGISYDSPDYTDESCTFKISLRNFRSILSWELKNHSIVPTHYTLLYTIMSKPEDLKVVKNCANTTRSFCDLTDEWRSTHEAYVTVLEGFSGNTTLFSCSHNFWLAIDMSFEPPEFEIVGFTNHINVMVKFPSIVEEELQFDLSLVIEEQSEGIVKKHKPEIKGNMSGNFTYIIDKLIPNTNYCVSVYLEHSDEQAVIKSPLKCTLLPPGQESESAESAKIGGIITVFLIALVLTSTIVTLKWIGYICLRNSLPKVLNFHNFLAWPFPNLPPLEAMDMVEVIYINRKKKVWDYNYDDESDSDTEAAPRTSGGGYTMHGLTVRPLGQASATSTESQLIDPEAEEEPDLPEVDVELPTMPKDSPQQLELLSGPCERRKSPLQDPFPEEDYSSTEGSGGRITFNVDLNSVFLRVLDDEDSDDLEAPLMLSSHLEEMVDPEDPDNVQSNHLLASGEGTQPTFPSPSSEGLWSEDAPSDQSDTSESDVDLGDGYIMR [S364A], the “effect of a mutation on the interaction” value was “decreasing interaction”.
In the case of MLLSQNAFIFRSLNLVLMVYISLVFGISYDSPDYTDESCTFKISLRNFRSILSWELKNHSIVPTHYTLLYTIMSKPEDLKVVKNCANTTRSFCDLTDEWRSTHEAYVTVLEGFSGNTTLFSCSHNFWLAIDMSFEPPEFEIVGFTNHINVMVKFPSIVEEELQFDLSLVIEEQSEGIVKKHKPEIKGNMSGNFTYIIDKLIPNTNYCVSVYLEHSDEQAVIKSPLKCTLLPPGQESESAESAKIGGIITVFLIALVLTSTIVTLKWIGYICLRNSLPKVLNFHNFLAWPFPNLPPLEAMDMVEVIYINRKKKVWDYNYDDESDSDTEAAPRTSGGGYTMHGLTVRPLGQASATSTESQLIDPESEEEPDLPEVDVELPTMPKDAPQQLELLSGPCERRKSPLQDPFPEEDYSSTEGSGGRITFNVDLNSVFLRVLDDEDSDDLEAPLMLSSHLEEMVDPEDPDNVQSNHLLASGEGTQPTFPSPSSEGLWSEDAPSDQSDTSESDVDLGDGYIMR [S384A], the “effect of a mutation on the interaction” value was “decreasing interaction”.
